Measurements published in patent US20260265316A1, “IMMUNOTHERAPEUTIC METHODS, COMPOUNDS, AND COMPOSITIONS FOR TREATING OR PREVENTING CELIAC DISEASE” (DBV Technologies, priority 2023, published 2026).
Residue numbers refer to the chain shown, from its start.

B1: QLQPFPQPELPYPQPELPYPQPELPYPQPQPKKKKPQPEQPEQPFPEQPQKKKKPQQPFPQPEQPFPWQPQKKKKPSGEGSFQPSQENPQ (peptide)
chain: QLQPFPQPELPYPQPELPYPQPELPYPQPQPKKKKPQPEQPEQPFPEQPQKKKKPQQPFPQPEQPFPWQPQKKKKPSGEGSFQPSQENPQ
B2: QLQPFPQPELPYPQPELPYPQPELPYPQPQPGPRRKKPQPEQPEQPFPEQPQGARRKKPQQPFPQPEQPFPWQPQGPKKPSGEGSFQPSQENPQ (peptide)
chain: QLQPFPQPELPYPQPELPYPQPELPYPQPQPGPRRKKPQPEQPEQPFPEQPQGARRKKPQQPFPQPEQPFPWQPQGPKKPSGEGSFQPSQENPQ
B3: QLQPFPQPELPYPQPELPYPQPELPYPQPQPGPRRKKPQPEQPEQPFPEQPQGCRRKKPQQPFPQPEQPFPWQPQGPKKPSGEGSFQPSQENPQ (peptide)
chain: B2 chain with A54C

Key:
[1] = tested on: circulating gluten-specific CD4+ T cells in whole blood of HLA-DQ8+ CeD patients; assay: Whole blood IL-2 cytokine release assay, HLA-DQ8+ CeD participants; assay type: cell-based, human; details: for IL-2 response (in words): HLA-DQ8+ donors, whole blood; for IL-2 response (in words) / mean IL-2 titer: 24 hours; for mean IL-2 titer fold higher than Nex01/02 peptide mix / mean IL-2 titer: HLA-DQ8+ participants, 10 μM
From the text: FIGS. 11A-11B are graphs depicting the evaluation of the ability of various molarities of three gliadin polypeptides (Cv6, Av6, and 4K), two peptide mixes containing either the four individual building blocks BB1, BB2a, BB3a and BB4a (BB1-4a) or two Nexvax2 peptides (Nex01/02), and six individual building blocks or peptides (BB1, BB2a, BB3a, BB4a, Nex01, and Nex02) to restimulate gluten-specific T cell collected from HLA-DQ8+ CeD patients using a whole blood IL-2 release assay. The whole blood cytokine release assay was performed in four HLA-DQ8+ participants with biopsy-confirmed celiac disease as described in FIG. 10. Data are expressed in femtogram/mL of plasma (A), or as fold change from the negative control (PBS 1×) (B). Symbols represent individual participants (patient ID); bars represent the median+interquartile range of individual values.
The overarching objective of this assay was to validate that the polypeptide constructs (Cv6, Av6, and 4K) can be recognized and processed by human APCs, and they can then promote the activation of gluten-specific effector/memory CD4^+ T cells in CeD patients. A Cytokine Release Assay (CRA) was used (previously described in the literature: Anderson et al., Clinical & Experimental Immunology, 2021 June; 204(3): 321-334; and in Hardy et al., Frontiers in Immunology, 2021, Vol. 12, Article 661662, the entire contents of each of which are incorporated by reference herein). This assay quantifies IL-2 produced by circulating gluten-specific CD4^+ T cells present in the blood of CeD patients upon in vitro stimulation with gluten-derived antigens. Due to the extremely high sensitivity of this CRA, no oral exposure to gluten was required prior to blood sampling.
Informed consent was obtained from all subjects prior to blood collection.
Unfractionated blood (225 μL per well of a 96-well plate) was then rapidly restimulated for 24 hours with each of three of the polypeptide constructs provided herein (SEQ ID NO:23 wherein X is C [Cv6, i.e., SEQ ID NO:49], SEQ ID NO:23 wherein X is A [Av6, i.e., SEQ ID NO:50], and SEQ ID NO:46 [4K]) and with each of four individual building blocks (SEQ ID NO:15 wherein Z is E [BB1], SEQ ID NO:16 wherein Z is E [BB2a], SEQ ID NO:20 wherein Z is E [BB3a], and SEQ ID NO:18 wherein Z is E [BB4a]). The concentrations of the polypeptide constructs ranged from 0.5 to 10 micromolar, and the concentration for each individual building block was 10 micromolar. […] These two peptides comprise an N-terminal pyroglutamate and a C-terminal amide. Nex01 and Nex02 were the two gliadin peptides used in the Nexvax2 immunotherapeutic vaccine that was intended to restore immune tolerance to gluten in HLA-DQ2.5+ CeD patients. A positive control consisted of blood cells stimulated with phytohemagglutinin (PHA) (10 μg/mL) which activates all T cells regardless of their antigen specificity (i.e., a polyclonal activator). Negative controls consisted of cells treated with buffer only (PBS 1×).
After incubation for 24 hours at 37° C. and 5% CO2, plasma was separated from whole blood by centrifugation. Plasma was collected from each well and replicates (n=6 replicates per test) pooled. All plasma samples were frozen at −80° C. until analysis. Single plasma aliquots (100 μL) were thawed and analyzed in duplicate using MSD IL-2 S-plex according to the manufacturer's instructions.

[2] = tested on: 3007.28 (DQ2.5-glia-α2 specific) T cell clone; assay: IFN-γ ELISpot T cell clone assay; assay type: cell-based, human; details: 10 μM, 3007.28 clone
[3] = tested on: 3177 2.27 (DQ2.5-glia-ω1 specific) T cell clone; assay: IFN-γ ELISpot T cell clone assay; assay type: cell-based, human; details: 10 μM, 3177 2.27 clone
Description: (§1) FIGS. 12A-12E are graphs depicting the evaluation of the ability of gliadin polypeptides (Cv6, Av6, and 4K) to reactivate gluten-specific T cell clones isolated from CeD patients and specific for a selection of key gliadin epitopes (i.e., DQ2.5-glia-α1a (A), DQ2.5-glia-α2 (B), DQ2.5-glia-ω1 […], DQ2.5-glia-ω2 (D), and DQ8-glia-α1 […]), by IFN-γ ELISpot assay. The three gliadin polypeptide constructs Cv6, Av6, and 4K were incubated overnight at three different molarities ([…]) with irradiated PBMCs, and five T-cell clones originally isolated from HLA-DQ2^+ or HLA-DQ8^+ CeD patients. T cells clones were specific for either DQ2.5-glia-α1a (A), DQ2.5-glia-α2 (B), DQ2.5-glia-ω1 (C), DQ2.5-glia-ω2 (D) or DQ8-glia-α1 (E) epitopes. Spots were detected with IFN-γ-biotinylated antibody and streptavidin-ALP complex and counted using an AID ELISpot reader. Data are expressed as mean Spot Forming Units (SFU) per well of 3 replicate wells+SD.
(§2) For that purpose, five individual CD4^+ T cell clones specific for a selection of key gliadin epitopes have been used. The experimental readout was the enumeration of IFN-γ producing T-cells (Th1 cells) by ELISpot, as previously described: Hardy M Y, et al., J Autoimmun 2015; 56:56-65; Anderson et al., Clinical & Experimental Immunology, 2021, Issue 3, June 2021, Pages 321-334, the entire contents of each of which are incorporated by reference herein.
(§3) For this in vitro assay, irradiated peripheral blood mononuclear cells (PBMCs) isolated from the blood of healthy donors matching for HLA-DQ2.5 or HLA-DQ8 were used as a source of APCs.
(§4) As a positive control for antigen-specific T cell stimulation, the cognate gliadin-derived immunogenic peptide known to activate each CD4^+ T cell clone was used, as described in the literature (Sollid et al., Immunogenetics, 2020 February; 72(1-2):85-88; Tye-Din et al., Sci Transl Med, 2010, Vol. 2, Issue 41, 41-51, the entire contents of each of which are incorporated by reference herein). Negative controls consisted of cells treated with a cocktail of four irrelevant peptides of the following sequence: PFPLPQP (SEQ ID NO:87), PQYQPEQ (SEQ ID NO:88), PFEPQPL (SEQ ID NO:89), and PQSYPEQ (SEQ ID NO:90).

[4] = tested on: 0482 1.2 clone (DQ8-glia-α-specific); assay: IFN-γ ELISpot T cell clone assay; assay type: cell-based, human; details: 10 μM
Description: as §1, §2, §3, §4

[5] = tested on: 0177 2.61 (DQ2.5-glia-ω2 specific) T cell clone; assay: IFN-γ ELISpot T cell clone assay; assay type: cell-based, human; details: 10 μM, 0177 2.61 clone
[6] = assay type: physicochemical; details: for precipitate in solution: pure water, PBS 1×, artificial perspiration, room temperature and 32° C., 24 hours
From the text: Dimerization appeared to be faster in artificial perspiration and at higher concentration.

| Molecule | IL-2 response (in words) [1] | mean spot forming units (IFN-γ ELISpot) [2] | mean spot forming units (IFN-γ ELISpot) [3] | mean spot forming units (IFN-γ ELISpot) [4] | mean spot forming units (IFN-γ ELISpot) [5] | mean IL-2 titer fold higher than Nex01/02 peptide mix [1] | mean IL-2 titer [1] | precipitate in solution [6] | dimer formation in solution (HPLC and LC-MS) ([6]; faster in artificial perspiration and at higher concentration) |
| --- | --- | --- | --- | --- | --- | --- | --- | --- | --- |
| H-PQPEQPEQPFPEQPQ-NH2 [BB2a] | potent IL-2 responses | – | – | – | – | – | – | – | – |
| H-PSGEGSFQPSQENPQ-NH2 [BB4a] | potent IL-2 responses | – | – | – | – | – | – | – | – |
| B1 | – | 109 | 14 | 175 | 11 | 15 fold | 6300 fg/mL | no precipitate was observed | – |
| B2 | – | 122 | 21 | 201 | 12 | 9 fold | 3695 fg/mL | no precipitate was observed | – |
| B3 | – | 117 | 15 | 173 | 16 | 11 fold | 4528 fg/mL | – | forms some dimers in solution |
